Experimental data as given in the NTF2 design screens of Basanta et al. (2020).

Assay: protease stability score; higher = more stable; yeast display proteolysis, trypsin and chymotrypsin;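 further: relative to predicted unfolded state with 0 unfolded-like and 1 meaning tenfold more protease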

Row | Sequence | protease stability score
1 | DEEEEFAKELIEEVTKTILTGDFRTFLELFDPNARLEFNGREIHGMEDWLKMMDELRREIWIHHNHNHRIEVQGDKAHTESRLDVSYNGQRYTLHSRLSIDVVDGRLKRLEYRTK | 1.5
2 | HDKEHLSEYLLDLTEYLIRTGDFKLMLKMADPHVRNHIIIGEFELEYHGWHVYIHWLEKVLRRFGVDHVHVTHRNAQGDKVEMDTHLEVNGRRHDVDQHWVYINGRIEHVRFRIR | 0.794
3 | SELEEDMRYLLKLILDAFRTGDEHTFARLFDPHVRIEIGDKEFVGREFVLHHAHQLRIKRSHFNVEHFEWQGNKIRMHGILHFHGRFDGQERESYVDIHIVIEKVDGRWLVKSLHIH | 1.63
4 | DESEESIRKVVKLLERAHRTGDEHEMKHLLDPNAKLIINGVELHGMELFEKLFKFERHHWRLHSMHVRHVDTQGDKANSDGEEDREFDGRREEVKTIIVMVKIDGRWHVKHIIFL | 1.08
5 | SEEKKFSMEMLELLLHLLLTGDWDKLNKEFDPDYRLIIGDKETIGRESVRERLRLEIERIDHIHDVKIEDWKVQGDKAHIRLRVDGNIDGKRKEFESELIVIIVDGRMKSVRIIIK | 1.97
6 | SEDEEDARRMVEIWKRSLETGDFKRILELMDPNTKYLFNGREYHGRHFVSRLFTEELERIKGARIEEESLEIQGNKVILHTRLHINGQHFKQITIIMKIDGKWFLESFSVE | 2.01
7 | SEKQKLAEHFAKEFIHSLETGNEEFLEHLADPDTRLEVGDKEIHGMHHLSRWLHEHLHRYKNVRWSIEITSIEVQGDKIIIHGTLHLNIDGVEIRELIVIEIDVVNGRVKSEHRDKL | 1.38
8 | DDDAIKRFHEQVDNEQHNNEEEQEKNVDPNATVNVGDKTYHGREKWREVVKRENEEMRVKYQHVTFRRHPGRVIVRFRIVNDHNGKPTETDVNANYQMHNGRIRQVNRRTDG | 0.225
9 | DSLEEMTRKWFEKWVRDLKTGDEQSMTELADPHVRFLQGDKEYHGRELFTELESEKRKRFDHLELRLHSMEVQGDKLHIDSRMILKIGDFVLKLNVYLHVLKIDGRWLLEEIRIK | 0.704
10 | SEHTHAAVRIMELESEYLTTGDWESVRRLLDPHVQVEIGDFHAHGWEERVRRMREIRVKVQDLRIRTIDFYNGRVELHFELHVRIEFNGRDVRQDTEIVLIVLKVNGKWLVDKIRFE | 0.901
11 | DKDERMRNEAFKITEHLHHTGDWHTRSRLADPEVQLIIGDKEYHGRETASEVLHKYLKRLGVDHLELKHFEVKMFDGQLHIHLHIELHINGVIYEVHIHIVMEKINGRWVIKHERIEFR | 1.01
12 | SEEKEHHHQLARDILEMLRTGNEEIWHRLLDPHVKLNIDGKEYHGREDVRQMLRDHLEKIKGIKLHVTDVKDFDGKVYVHGRWHVGNFTVDILTIYTFIDGRVHTMSEETR | 1.41
13 | DESERDMETFVRITMDELVTGNEESIEEMLDPNVRLEVNGRQFHGREDATRIISEWIKILGINHRRLEEIRFVDGRAEVIVEIRVGDKRSELILISLKVNGQWRMERFEIRNE | 2.09
14 | DEEQELLLRIFERWLEFLLTGDEDTMHRLFDPDVKSRIGDFNHHGRELVLEAHQWFLKHARLKEFIRRDIHAINGRINMKGDVRVDVNGQEWEDHIRIHLVVVNGKMREIHIEEK | 1.38
15 | SEIDREHHELLTLLVHLWLTGDWKTFKKYFDPNVRLHQGDFDDHGWEALEETERKHGIEIKDLELHEFHVQGEKIIINLHVVIRQGDKTYRKDMRITYVVVNGRVTSIRMEVR | 0.877
16 | SDELEEALKWLEELMRLTLTGNWDRLDELVDPNAKEVINGKELHGMHFFRRVLHEIRFTHIDVQDIRLQGNYVEVDLRVEGNIDGRHVDLHTEVILLKVNGRWLHKMRILR | 1.56
17 | SEEEEMLKHALEILTEVTDTGNWEEYEKLLDPDVRVHIGDKTLVGMEEILRYWMEYFKSLGVDHVETRVKEISHQGDKMHMDTTLRIHQGDKDLEFHVEIHAEKVNGRWFIKEINFE | 1.75
18 | SEDEDIAKEILRLLLEALRTGDWHTVHRLMDPHARVHVNGRDFIGMEEVLRWLEEFLRHMRLRSLTVHDIRIFDGRLHVDSRSDVEIDGRRISIETEVIILKVDGRWHVKSIIFR | 1.36
19 | SEDIDIAREMADIIIKYWETGDEDNVRQLMDPNVKFHIGDKVNIGREWMLEFVRHWKEHARMHLKVEDFRIVGDKIHVDTRIELNVNGREMHIDLHIHLRIVNGRLKSSHIEHR | 1.19
20 | SEEERATEYVLSMLLHLLRTGDEDALFEMADPRYRFIYGEKEKVGRHVIHEFITHLRIDDFRLRRLEIQGDKIITDGEMYGTINGQHETRRVILIMRKINGRWFLESIEIR | 1.7
21 | HEEEHEMRKLAHILFEVLLTGNWKLLAELADPDVLTHINGRDMHGMESELETWKHLRIRDMKIRHVDVQGDKVHLDTELEGEINGRRFQTRTHIHYLLVDGRTKHVKVQID | 1.51
22 | DEHEKIIKHFLELFMWALRTGDEEINRHLVDPNVRVDVNGVILIGREEVVHYLRHLQEKLGMEIEEVRVEDMSVFDGRLHVDMRIHGRIGDKHTTIETHYLILKFDGRWILEHRRIR | 2.37
23 | DDEEEESEHAVKFWKHAQETGDFDEMRRLADPNVKVEIGDKELHGRKDFTRLLREHKEKLGVERIEVFIHDMHPINGRVTVHVIIEYNGQRQWFHVIFLKINGRWFIESMHIT | 0.378
24 | DEQSRVSEEVIKIWLESVNTGDEKSLSELIDPNVKIHVNGKKMHGWRDAEDHARRIDHMHVEDFKIESIQTQGDFAILHGRLVYSRIVNGVELHSDEHVEMVILKYNGRWSIEEVRVR | 1.27
25 | SEDEEIFRIALHILIYTMKTGDEKMLEENFDPNTKIRVGDKEFVGREELRHWFEHLRPKDFKLRDISTQGEKIRIIGHSIGEVDGREVRYDVEMDLHKVDGRWRMTHERIH | 1.16
